Results published in patent US20260116925A1 (ARIZONA BOARD OF REGENTS ON BEHALF OF ARIZONA STATE …, published 2026).

Biological target: T1, Cathepsin G
T1 sequence (P08311 21-244, species assumed, looked up): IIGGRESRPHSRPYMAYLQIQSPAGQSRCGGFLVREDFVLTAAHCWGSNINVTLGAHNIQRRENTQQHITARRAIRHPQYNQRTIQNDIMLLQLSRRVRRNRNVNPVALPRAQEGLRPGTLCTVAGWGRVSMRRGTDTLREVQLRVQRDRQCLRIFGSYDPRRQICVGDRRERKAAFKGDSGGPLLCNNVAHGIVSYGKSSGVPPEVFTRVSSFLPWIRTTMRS
Test: cell-based or functional assay

inhibitory stoichiometry (A/A0 (405 nm) vs. time): 1 inhibitor:enzyme ratio
B1: recombinant Serpinb3a (mouse-derived), 6×His-tagged, produced in E. coli (other)
chain: HHHHHHMHLFAEATTKFTLELYRQLRESDNNIFYSPISMMTALAMLQLGAKGNTEKQIEKVLQFNETTKKTTEKSAHCHDEENVHEQFQKLMTQLNKSNDAYDLKAANSIYGAKGFPFVQTFLEDIKEYYQANVESLDFEHAAEESEKKINSWVESQTNGKIKDLFPNGSLNRSTIMVLVNAVYFKGQWNHKFDEKHTTEEKFWLNKNTSKPVQMMKQNIEFNFMFLEDVQAKIVEIPYKGKELSMIVLLPVEINGLKQLEEQLTADKLLEWTRAENMHMTELYLSLPRFKVDEKYDLPIPLEHMGMVDAFDPQKADFSGMSSTQGLVVSKVLHKSFVEVNEEGTEAAAATGVEVSLTSAQIAEDFCCDHPFLFFIIHRKTNSILFFGRISSP
